Source: patent US20220227829A1 (SHANGHAI GP BIOTECH, published 2022)

Columns and labels:
[1] = biological target: T1, CD25 protein (from Example 2); experiment: ELISA on coated CD25
T1 chain: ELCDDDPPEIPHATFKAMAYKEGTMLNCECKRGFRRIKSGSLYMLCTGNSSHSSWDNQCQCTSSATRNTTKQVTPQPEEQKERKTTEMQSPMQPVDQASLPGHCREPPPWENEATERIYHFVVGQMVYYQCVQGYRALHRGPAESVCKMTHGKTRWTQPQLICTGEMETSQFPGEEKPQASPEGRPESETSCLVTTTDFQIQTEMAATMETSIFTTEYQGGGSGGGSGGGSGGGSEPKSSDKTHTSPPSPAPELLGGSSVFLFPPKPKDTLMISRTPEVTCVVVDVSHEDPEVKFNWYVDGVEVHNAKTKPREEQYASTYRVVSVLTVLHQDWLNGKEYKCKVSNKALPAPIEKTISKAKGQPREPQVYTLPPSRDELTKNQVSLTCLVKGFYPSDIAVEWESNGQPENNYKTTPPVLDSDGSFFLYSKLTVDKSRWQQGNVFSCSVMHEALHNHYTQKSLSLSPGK
Procedure: (§1) CD25 (from Example 2) was coated on a 96-well high adsorption microtiter plate (3590, Costar), washed and blocked. The sample to be tested was diluted to an appropriate concentration and added to wells.

[2] = biological target: T2, CD25 on the surface of CTLL-2 cells (mouse cytotoxic T lymphocyte cell line) (mouse, UniProt P01590 22-268); experiment: cell-based or functional assay
T2 sequence (looked up): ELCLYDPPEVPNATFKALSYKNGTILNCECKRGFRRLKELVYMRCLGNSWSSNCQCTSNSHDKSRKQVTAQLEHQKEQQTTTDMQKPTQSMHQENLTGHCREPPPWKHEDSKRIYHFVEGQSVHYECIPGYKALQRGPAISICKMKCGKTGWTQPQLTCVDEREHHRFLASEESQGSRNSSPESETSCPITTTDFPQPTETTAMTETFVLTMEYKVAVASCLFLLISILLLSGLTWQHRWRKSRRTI

[3] = biological target: T3, CD25 on the surface of NK92 cells (human NK cell line) (human, UniProt P01589 22-272); experiment: cell-based or functional assay
T3 sequence (looked up): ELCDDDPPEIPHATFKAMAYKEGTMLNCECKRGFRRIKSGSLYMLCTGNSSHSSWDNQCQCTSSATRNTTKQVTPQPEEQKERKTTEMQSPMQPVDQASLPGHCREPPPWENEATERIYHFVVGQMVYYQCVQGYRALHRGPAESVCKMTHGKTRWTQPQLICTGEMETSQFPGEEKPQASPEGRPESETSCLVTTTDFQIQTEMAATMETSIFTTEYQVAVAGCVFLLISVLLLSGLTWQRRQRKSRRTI

[4] = biological target: T1, CD25 protein (from Example 2); experiment: ELISA on coated CD25, sample at 1 ug/ml, relative to rhIL-2 = 100%
Procedure: as §1

[5] = biological target: T1, CD25 protein (from Example 2); experiment: ELISA on coated CD25, sample at 0.2 ug/ml, relative to rhIL-2 = 100%
Procedure: as §1

[6] = biological target: T1, CD25 protein (from Example 2); experiment: ELISA on coated CD25, sample at 0.04 ug/ml, relative to rhIL-2 = 100%
Procedure: as §1

B1: IL-2gm6 (T3A, M39N, K49N, A73T, D109N), HIS tag (ligand)
chain: APASSSTKKTQLQLEHLLLDLQMILNGINNYKNPKLTRNLTFKFYMPKNATELKHLQCLEEELKPLEEVLNLTQSKNFHLRPRDLISNINVIVLELKGSETTFMCEYANETATIVEFLNRWITFAQSIISTLTHHHHHH
notes: Expressed in Expi293F cells; also called IL-2gm6-His
binding result [1]: no binding (tested: 1 ug/ml)
EC50 (nM), CTLL-2 cell proliferation [2]: 51.5 nM
Potency relative to rhIL-2 (%), CTLL-2 cell proliferation [2]: 0.006%
EC50 (nM), NK92 cell proliferation [3]: 7.08 nM
Potency relative to rhIL-2 (%), NK92 cell proliferation [3]: 0.027%
Binding activity (%) [4]: 0.88%
Binding activity (%) [5]: 1.08%
Binding activity (%) [6]: 1.36%

B2: IL-2gm8 (T3A, M39N, K49N), HIS tag (ligand)
chain: APASSSTKKTQLQLEHLLLDLQMILNGINNYKNPKLTRNLTFKFYMPKNATELKHLQCLEEELKPLEEVLNLAQSKNFHLRPRDLISNINVIVLELKGSETTFMCEYADETATIVEFLNRWITFAQSIISTLTHHHHHH
notes: Expressed in Expi293F cells; also called IL-2gm8-His
binding result [1]: no binding (tested: 1 ug/ml)
EC50 (nM), CTLL-2 cell proliferation [2]: 8.84 nM
Potency relative to rhIL-2 (%), CTLL-2 cell proliferation [2]: 0.033%
EC50 (nM), NK92 cell proliferation [3]: 8.91 nM
Potency relative to rhIL-2 (%), NK92 cell proliferation [3]: 0.022%
Binding activity (%) [4]: 0.74%
Binding activity (%) [5]: 0.99%
Binding activity (%) [6]: 1.51%

B3: IL-2gm3 (T3A, A73T) or (T3A, A73S), HIS tag (ligand)
chain: APASSSTKKTQLQLEHLLLDLQMILNGINNYKNPKLTRMLTFKFYMPKKATELKHLQCLEEELKPLEEVLNLTQSKNFHLRPRDLISNINVIVLELKGSETTFMCEYADETATIVEFLNRWITFAQSIISTLTHHHHHH
notes: also called IL-2gm3-His
EC50 (nM), CTLL-2 cell proliferation [2]: 0.165 nM
Potency relative to rhIL-2 (%), CTLL-2 cell proliferation [2]: 1.76%
EC50 (nM), NK92 cell proliferation [3]: 2.21 nM
Potency relative to rhIL-2 (%), NK92 cell proliferation [3]: 0.088%
Binding activity (%) [4]: 10.3%
Binding activity (%) [5]: 5.62%
Binding activity (%) [6]: 2.27%

B4: IL-2gm1 (T3A, M39N), HIS tag (ligand)
chain: APASSSTKKTQLQLEHLLLDLQMILNGINNYKNPKLTRNLTFKFYMPKKATELKHLQCLEEELKPLEEVLNLAQSKNFHLRPRDLISNINVIVLELKGSETTFMCEYADETATIVEFLNRWITFAQSIISTLTHHHHHH
notes: Expressed in Expi293F cells with a leader peptide; M39N is meant to make an N-glycosylation site; also called IL-2gm1-His
binding result [1]: no binding (tested: 1 ug/ml)
EC50 (nM), CTLL-2 cell proliferation [2]: 83.4 nM
Potency relative to rhIL-2 (%), CTLL-2 cell proliferation [2]: 0.003%
EC50 (nM), NK92 cell proliferation [3]: 38.5 nM
Potency relative to rhIL-2 (%), NK92 cell proliferation [3]: 0.005%
Binding activity (%) [4]: 0.88%
Binding activity (%) [5]: 1.08%
Binding activity (%) [6]: 1.66%

B5: IL-2gm12 (T3A, A73T, D109N), HIS tag (ligand)
chain: APASSSTKKTQLQLEHLLLDLQMILNGINNYKNPKLTRMLTFKFYMPKKATELKHLQCLEEELKPLEEVLNLTQSKNFHLRPRDLISNINVIVLELKGSETTFMCEYANETATIVEFLNRWITFAQSIISTLTHHHHHH
notes: Expressed in Expi293F cells; also called IL-2gm12-His
EC50 (nM), CTLL-2 cell proliferation [2]: 0.156 nM
Potency relative to rhIL-2 (%), CTLL-2 cell proliferation [2]: 1.86%
EC50 (nM), NK92 cell proliferation [3]: 0.296 nM
Potency relative to rhIL-2 (%), NK92 cell proliferation [3]: 0.653%
Binding activity (%) [4]: 2.77%
Binding activity (%) [5]: 1.48%
Binding activity (%) [6]: 1.97%

B6: IL-2gm11 (T3A, K49N, D109N), HIS tag (ligand)
chain: APASSSTKKTQLQLEHLLLDLQMILNGINNYKNPKLTRMLTFKFYMPKNATELKHLQCLEEELKPLEEVLNLAQSKNFHLRPRDLISNINVIVLELKGSETTFMCEYANETATIVEFLNRWITFAQSIISTLTHHHHHH
notes: Expressed in Expi293F cells; also called IL-2gm11-His
EC50 (nM), CTLL-2 cell proliferation [2]: 0.0349 nM
Potency relative to rhIL-2 (%), CTLL-2 cell proliferation [2]: 8.31%
EC50 (nM), NK92 cell proliferation [3]: 0.28 nM
Potency relative to rhIL-2 (%), NK92 cell proliferation [3]: 0.69%
Binding activity (%) [4]: 12.5%
Binding activity (%) [5]: 5.03%
Binding activity (%) [6]: 2.42%

B7: IL-2gm7 (T3A, D109N), HIS tag (ligand)
chain: APASSSTKKTQLQLEHLLLDLQMILNGINNYKNPKLTRMLTFKFYMPKKATELKHLQCLEEELKPLEEVLNLAQSKNFHLRPRDLISNINVIVLELKGSETTFMCEYANETATIVEFLNRWITFAQSIISTLTHHHHHH
notes: Expressed in Expi293F cells; also called IL-2gm7-His
EC50 (nM), CTLL-2 cell proliferation [2]: 0.365 nM
Potency relative to rhIL-2 (%), CTLL-2 cell proliferation [2]: 0.794%
EC50 (nM), NK92 cell proliferation [3]: 0.557 nM
Potency relative to rhIL-2 (%), NK92 cell proliferation [3]: 0.347%
Binding activity (%) [4]: 8.1%
Binding activity (%) [5]: 2.96%
Binding activity (%) [6]: 1.82%

B8: IL-2gm4 (T3A, K49N, A73T), HIS tag (ligand)
chain: APASSSTKKTQLQLEHLLLDLQMILNGINNYKNPKLTRMLTFKFYMPKNATELKHLQCLEEELKPLEEVLNLTQSKNFHLRPRDLISNINVIVLELKGSETTFMCEYADETATIVEFLNRWITFAQSIISTLTHHHHHH
notes: Expressed in Expi293F cells; also called IL-2gm4-His
EC50 (nM), CTLL-2 cell proliferation [2]: 0.0906 nM
Potency relative to rhIL-2 (%), CTLL-2 cell proliferation [2]: 3.2%
EC50 (nM), NK92 cell proliferation [3]: 0.234 nM
Potency relative to rhIL-2 (%), NK92 cell proliferation [3]: 0.828%
Binding activity (%) [4]: 14.8%
Binding activity (%) [5]: 7.5%
Binding activity (%) [6]: 3.18%

B9: IL-2gm9 (T3A, M39N, A73T), HIS tag (ligand)
chain: APASSSTKKTQLQLEHLLLDLQMILNGINNYKNPKLTRNLTFKFYMPKKATELKHLQCLEEELKPLEEVLNLTQSKNFHLRPRDLISNINVIVLELKGSETTFMCEYADETATIVEFLNRWITFAQSIISTLTHHHHHH
notes: Expressed in Expi293F cells; also called IL-2gm9-His
binding result [1]: no binding (tested: 1 ug/ml)
EC50 (nM), CTLL-2 cell proliferation [2]: 2.38 nM
Potency relative to rhIL-2 (%), CTLL-2 cell proliferation [2]: 0.122%
EC50 (nM), NK92 cell proliferation [3]: 1.07 nM
Potency relative to rhIL-2 (%), NK92 cell proliferation [3]: 0.181%
Binding activity (%) [4]: 0.88%
Binding activity (%) [5]: 1.18%
Binding activity (%) [6]: 1.51%

B10: IL-2gm5 (T3A, M39N, K49N, A73T), HIS tag (ligand)
chain: APASSSTKKTQLQLEHLLLDLQMILNGINNYKNPKLTRNLTFKFYMPKNATELKHLQCLEEELKPLEEVLNLTQSKNFHLRPRDLISNINVIVLELKGSETTFMCEYADETATIVEFLNRWITFAQSIISTLTHHHHHH
notes: Expressed in Expi293F cells; also called IL-2gm5-His
binding result [1]: no binding (tested: 1 ug/ml)
EC50 (nM), CTLL-2 cell proliferation [2]: 8.22 nM
Potency relative to rhIL-2 (%), CTLL-2 cell proliferation [2]: 0.035%
EC50 (nM), NK92 cell proliferation [3]: 20.7 nM
Potency relative to rhIL-2 (%), NK92 cell proliferation [3]: 0.009%
Binding activity (%) [4]: 0.88%
Binding activity (%) [5]: 1.08%
Binding activity (%) [6]: 1.51%

B11: IL-2gm13 (T3A, K49N, A73T, D109N), HIS tag (ligand)
chain: APASSSTKKTQLQLEHLLLDLQMILNGINNYKNPKLTRMLTFKFYMPKNATELKHLQCLEEELKPLEEVLNLTQSKNFHLRPRDLISNINVIVLELKGSETTFMCEYANETATIVEFLNRWITFAQSIISTLTHHHHHH
notes: Expressed in Expi293F cells; also called IL-2gm13-His
EC50 (nM), CTLL-2 cell proliferation [2]: 0.144 nM
Potency relative to rhIL-2 (%), CTLL-2 cell proliferation [2]: 2.01%
EC50 (nM), NK92 cell proliferation [3]: 0.293 nM
Potency relative to rhIL-2 (%), NK92 cell proliferation [3]: 0.661%
Binding activity (%) [4]: 2.23%
Binding activity (%) [5]: 1.18%
Binding activity (%) [6]: 1.51%

B12: IL-2gm2 (T3A, K49N), HIS tag (ligand)
chain: APASSSTKKTQLQLEHLLLDLQMILNGINNYKNPKLTRMLTFKFYMPKNATELKHLQCLEEELKPLEEVLNLAQSKNFHLRPRDLISNINVIVLELKGSETTFMCEYADETATIVEFLNRWITFAQSIISTLTHHHHHH
notes: Expressed in Expi293F cells; also called IL-2gm2-His
EC50 (nM), CTLL-2 cell proliferation [2]: 0.0638 nM
Potency relative to rhIL-2 (%), CTLL-2 cell proliferation [2]: 4.55%
EC50 (nM), NK92 cell proliferation [3]: 0.112 nM
Potency relative to rhIL-2 (%), NK92 cell proliferation [3]: 1.72%
Binding activity (%) [4]: 31%
Binding activity (%) [5]: 31.3%
Binding activity (%) [6]: 16.6%
